The source of these data is patent publication US20140087995A1 (published 2014).

For experiment [1], the target named is T1, rat calcitonin receptor (rat, UniProt P32214 25-516).
T1 construct: whole, on cells; Membranes of transiently transfected BHK tk'ts 13 cells; also called rCTR; rat calcitonin (a) receptor
T1 sequence (looked up): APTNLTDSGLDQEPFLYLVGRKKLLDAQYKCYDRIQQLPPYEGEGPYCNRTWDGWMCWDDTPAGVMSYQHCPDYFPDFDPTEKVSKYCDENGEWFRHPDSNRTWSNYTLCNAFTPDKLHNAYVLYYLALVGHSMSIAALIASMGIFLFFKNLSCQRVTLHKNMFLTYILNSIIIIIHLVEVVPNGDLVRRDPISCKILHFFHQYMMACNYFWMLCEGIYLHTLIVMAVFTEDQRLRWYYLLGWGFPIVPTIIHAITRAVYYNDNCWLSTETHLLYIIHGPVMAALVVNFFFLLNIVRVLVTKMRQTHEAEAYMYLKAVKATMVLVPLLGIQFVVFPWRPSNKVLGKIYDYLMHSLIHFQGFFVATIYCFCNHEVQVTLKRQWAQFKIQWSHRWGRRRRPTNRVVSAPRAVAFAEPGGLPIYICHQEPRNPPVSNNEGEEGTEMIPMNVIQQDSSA
As to the kind of experiment: SPA competition with 125I-calcitonin on membranes of BHK tk'ts 13 cells with rat calcitonin receptor (Assay VIII).

Experiment [2] has as its target T2, rat amylin receptor (rat calcitonin receptor + rat RAMP 3) (rat, UniProt P32214 25-516; Q9JJ73 23-147).
T2 construct: whole, on cells; Membranes of transiently transfected BHK tk'ts 13 cells; also called rAmylin-R; rat amylin 3(a) receptor
T2 sequence (looked up) 1: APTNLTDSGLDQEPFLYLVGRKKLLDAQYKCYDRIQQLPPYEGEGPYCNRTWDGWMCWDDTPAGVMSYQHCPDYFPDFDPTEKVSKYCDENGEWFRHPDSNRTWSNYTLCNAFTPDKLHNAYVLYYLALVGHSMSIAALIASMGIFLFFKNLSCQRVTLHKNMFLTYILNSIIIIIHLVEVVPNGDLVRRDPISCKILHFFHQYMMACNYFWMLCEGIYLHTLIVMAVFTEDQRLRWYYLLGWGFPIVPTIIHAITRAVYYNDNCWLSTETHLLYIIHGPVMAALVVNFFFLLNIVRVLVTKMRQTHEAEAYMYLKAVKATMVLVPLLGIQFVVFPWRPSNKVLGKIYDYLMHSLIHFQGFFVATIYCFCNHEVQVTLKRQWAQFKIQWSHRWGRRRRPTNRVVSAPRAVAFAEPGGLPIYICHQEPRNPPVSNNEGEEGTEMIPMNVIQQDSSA
T2 sequence (looked up) 2: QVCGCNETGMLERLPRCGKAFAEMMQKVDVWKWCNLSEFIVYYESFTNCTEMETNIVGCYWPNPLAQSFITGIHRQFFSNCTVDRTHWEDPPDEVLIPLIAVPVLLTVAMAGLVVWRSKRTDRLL
In words: SPA competition with 125I-rat amylin on membranes of BHK tk'ts 13 cells with rat calcitonin receptor + rat RAMP3 (Assay VI).

In experiment [3] the target is T3, human calcitonin receptor (human, UniProt P30988 25-474).
T3 construct: whole, on cells; Membranes of stably transfected cells; also called hCTR; hCT
T3 sequence (looked up): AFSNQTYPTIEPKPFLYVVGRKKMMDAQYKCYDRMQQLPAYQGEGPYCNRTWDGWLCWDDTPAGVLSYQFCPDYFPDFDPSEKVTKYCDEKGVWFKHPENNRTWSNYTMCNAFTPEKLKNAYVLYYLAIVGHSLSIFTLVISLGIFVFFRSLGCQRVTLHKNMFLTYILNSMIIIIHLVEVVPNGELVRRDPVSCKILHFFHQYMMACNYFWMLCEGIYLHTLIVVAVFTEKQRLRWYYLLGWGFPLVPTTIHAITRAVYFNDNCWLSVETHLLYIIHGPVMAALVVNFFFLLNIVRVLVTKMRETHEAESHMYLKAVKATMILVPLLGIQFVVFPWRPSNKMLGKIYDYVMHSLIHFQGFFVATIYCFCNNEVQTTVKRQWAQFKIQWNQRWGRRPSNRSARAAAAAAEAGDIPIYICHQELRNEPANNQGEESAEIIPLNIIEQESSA
In words: ratio of IC50 on human calcitonin receptor to IC50 on human amylin receptor (reference m42), SPA competition. In a few lines: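 Membranes (35 ng/μL final) + SPA beads, 50 mM Hepes pH 7.4 buffer with 1 mM CaCl2, 5 mM MgCl₂, 0.1% OA, 0.02% Tween20; 120 min, 25° C, shaking; centrifuged, counted; IC₅₀ by one-site binding competition.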

Experiment [4] concerns the target T1, rat calcitonin receptor. As to the kind of experiment: ratio of IC50 on rat calcitonin receptor to IC50 on rat amylin receptor (reference m40).

Numbered stars: 1 amine (or outer) side, 2 acyl side, 3 side chain; on linkers, the order of the positions; unused ones are H or OH. Bridge positions count the residues as written; N and C are the ends. Side chains are listed from the residue outwards. Ends that are not written are not given here. * marks the point of attachment. C20 diacid = O=C(O)CCCCCCCCCCCCCCCCCCC(=O)*; γGlu = O=C(O)[C@H](CCC(=O)[*:2])N[*:1]

B1: N^ε1-[(4S)-4-carboxy-4-(19-carboxynonadecanoylamino)butanoyl]-[Ala14,Arg17,Pro21,Pro27,Pro34]-h-amylin (peptide)
peptide: K([γGlu-C20 diacid])CNTATCATQRLAAFLRHSSPNFGAIPSSTNVGPNTY-NH2
modifications: disulfide 2-7; N-terminus assumed
SMILES: CC[C@H](C)[C@H](NC(=O)[C@H](C)NC(=O)CNC(=O)[C@H](Cc1ccccc1)NC(=O)[C@H](CC(N)=O)NC(=O)[C@@H]1CCCN1C(=O)[C@H](CO)NC(=O)[C@H](CO)NC(=O)[C@H](Cc1c[nH]cn1)NC(=O)[C@H](CCCNC(=N)N)NC(=O)[C@H](CC(C)C)NC(=O)[C@H](Cc1ccccc1)NC(=O)[C@H](C)NC(=O)[C@H](C)NC(=O)[C@H](CC(C)C)NC(=O)[C@H](CCCNC(=N)N)NC(=O)[C@H](CCC(N)=O)NC(=O)[C@@H](NC(=O)[C@H](C)NC(=O)[C@@H]1CSSC[C@H](NC(=O)[C@@H](N)CCCCNC(=O)CC[C@H](NC(=O)CCCCCCCCCCCCCCCCCCC(=O)O)C(=O)O)C(=O)N[C@@H](CC(N)=O)C(=O)N[C@@H]([C@@H](C)O)C(=O)N[C@@H](C)C(=O)N[C@@H]([C@@H](C)O)C(=O)N1)[C@@H](C)O)C(=O)N1CCC[C@H]1C(=O)N[C@@H](CO)C(=O)N[C@@H](CO)C(=O)N[C@H](C(=O)N[C@@H](CC(N)=O)C(=O)N[C@H](C(=O)NCC(=O)N1CCC[C@H]1C(=O)N[C@@H](CC(N)=O)C(=O)N[C@H](C(=O)N[C@@H](Cc1ccc(O)cc1)C(N)=O)[C@@H](C)O)C(C)C)[C@@H](C)O
notes: Synthetic acylated analogue of human amylin; also called compound 94
For the molecule B1, the IC50 in the experiment with rat calcitonin receptor [1] amounted to 111 nM; in experiment [2], 0.397 nM. In addition, in experiment [3], the “Ratio hCT/hAmylin binding” value was found to be 46.3. Besides, the “Ratio rCT/rAmylin binding” value with rat calcitonin receptor [4] was 280.

B2: N^ε1-[(4S)-4-carboxy-4-(19-carboxynonadecanoylamino)butanoyl]-[Asp14,Arg17,Pro21,Pro27,Pro34,Arg35]-h-amylin (peptide)
peptide: K([γGlu-C20 diacid])CNTATCATQRLADFLRHSSPNFGAIPSSTNVGPRTY-NH2
modifications: disulfide 2-7; N-terminus assumed
SMILES: CC[C@H](C)[C@H](NC(=O)[C@H](C)NC(=O)CNC(=O)[C@H](Cc1ccccc1)NC(=O)[C@H](CC(N)=O)NC(=O)[C@@H]1CCCN1C(=O)[C@H](CO)NC(=O)[C@H](CO)NC(=O)[C@H](Cc1c[nH]cn1)NC(=O)[C@H](CCCNC(=N)N)NC(=O)[C@H](CC(C)C)NC(=O)[C@H](Cc1ccccc1)NC(=O)[C@H](CC(=O)O)NC(=O)[C@H](C)NC(=O)[C@H](CC(C)C)NC(=O)[C@H](CCCNC(=N)N)NC(=O)[C@H](CCC(N)=O)NC(=O)[C@@H](NC(=O)[C@H](C)NC(=O)[C@@H]1CSSC[C@H](NC(=O)[C@@H](N)CCCCNC(=O)CC[C@H](NC(=O)CCCCCCCCCCCCCCCCCCC(=O)O)C(=O)O)C(=O)N[C@@H](CC(N)=O)C(=O)N[C@@H]([C@@H](C)O)C(=O)N[C@@H](C)C(=O)N[C@@H]([C@@H](C)O)C(=O)N1)[C@@H](C)O)C(=O)N1CCC[C@H]1C(=O)N[C@@H](CO)C(=O)N[C@@H](CO)C(=O)N[C@H](C(=O)N[C@@H](CC(N)=O)C(=O)N[C@H](C(=O)NCC(=O)N1CCC[C@H]1C(=O)N[C@@H](CCCNC(=N)N)C(=O)N[C@H](C(=O)N[C@@H](Cc1ccc(O)cc1)C(N)=O)[C@@H](C)O)C(C)C)[C@@H](C)O
notes: Synthetic acylated analogue of human amylin
Consider B2, for which the IC50 was 58.5 nM in the experiment with rat calcitonin receptor [1] and 0.504 nM in experiment [2]. The “Ratio hCT/hAmylin binding” value in experiment [3] worked out at 151. The “Ratio rCT/rAmylin binding” value with rat calcitonin receptor [4] was determined as 116.

B3: N^ε1-[(4S)-4-carboxy-4-(19-carboxynonadecanoylamino)butanoyl]-[Glu14,Arg17,Pro21,Pro27,Arg34,Glu35]-h-amylin (peptide)
peptide: K([γGlu-C20 diacid])CNTATCATQRLAEFLRHSSPNFGAIPSSTNVGRETY-NH2
modifications: disulfide 2-7; N-terminus assumed
SMILES: CC[C@H](C)[C@H](NC(=O)[C@H](C)NC(=O)CNC(=O)[C@H](Cc1ccccc1)NC(=O)[C@H](CC(N)=O)NC(=O)[C@@H]1CCCN1C(=O)[C@H](CO)NC(=O)[C@H](CO)NC(=O)[C@H](Cc1c[nH]cn1)NC(=O)[C@H](CCCNC(=N)N)NC(=O)[C@H](CC(C)C)NC(=O)[C@H](Cc1ccccc1)NC(=O)[C@H](CCC(=O)O)NC(=O)[C@H](C)NC(=O)[C@H](CC(C)C)NC(=O)[C@H](CCCNC(=N)N)NC(=O)[C@H](CCC(N)=O)NC(=O)[C@@H](NC(=O)[C@H](C)NC(=O)[C@@H]1CSSC[C@H](NC(=O)[C@@H](N)CCCCNC(=O)CC[C@H](NC(=O)CCCCCCCCCCCCCCCCCCC(=O)O)C(=O)O)C(=O)N[C@@H](CC(N)=O)C(=O)N[C@@H]([C@@H](C)O)C(=O)N[C@@H](C)C(=O)N[C@@H]([C@@H](C)O)C(=O)N1)[C@@H](C)O)C(=O)N1CCC[C@H]1C(=O)N[C@@H](CO)C(=O)N[C@@H](CO)C(=O)N[C@H](C(=O)N[C@@H](CC(N)=O)C(=O)N[C@H](C(=O)NCC(=O)N[C@@H](CCCNC(=N)N)C(=O)N[C@@H](CCC(=O)O)C(=O)N[C@H](C(=O)N[C@@H](Cc1ccc(O)cc1)C(N)=O)[C@@H](C)O)C(C)C)[C@@H](C)O
notes: as for B2
For the molecule B3, the values for the IC50 (with rat calcitonin receptor [1]; in experiment [2]) were 86.1 nM and 1.06 nM, respectively. Besides, the “Ratio hCT/hAmylin binding” value in experiment [3] is 28.5. In addition, the “Ratio rCT/rAmylin binding” value with rat calcitonin receptor [4] stood at 81.1.

B4: N^ε1-[(4S)-4-carboxy-4-(19-carboxynonadecanoylamino)butanoyl]-[Asp14,Arg17,Pro21,Pro27,Pro34,Glu35]-h-amylin (peptide)
peptide: K([γGlu-C20 diacid])CNTATCATQRLADFLRHSSPNFGAIPSSTNVGPETY-NH2
modifications: disulfide 2-7; N-terminus assumed
SMILES: CC[C@H](C)[C@H](NC(=O)[C@H](C)NC(=O)CNC(=O)[C@H](Cc1ccccc1)NC(=O)[C@H](CC(N)=O)NC(=O)[C@@H]1CCCN1C(=O)[C@H](CO)NC(=O)[C@H](CO)NC(=O)[C@H](Cc1c[nH]cn1)NC(=O)[C@H](CCCNC(=N)N)NC(=O)[C@H](CC(C)C)NC(=O)[C@H](Cc1ccccc1)NC(=O)[C@H](CC(=O)O)NC(=O)[C@H](C)NC(=O)[C@H](CC(C)C)NC(=O)[C@H](CCCNC(=N)N)NC(=O)[C@H](CCC(N)=O)NC(=O)[C@@H](NC(=O)[C@H](C)NC(=O)[C@@H]1CSSC[C@H](NC(=O)[C@@H](N)CCCCNC(=O)CC[C@H](NC(=O)CCCCCCCCCCCCCCCCCCC(=O)O)C(=O)O)C(=O)N[C@@H](CC(N)=O)C(=O)N[C@@H]([C@@H](C)O)C(=O)N[C@@H](C)C(=O)N[C@@H]([C@@H](C)O)C(=O)N1)[C@@H](C)O)C(=O)N1CCC[C@H]1C(=O)N[C@@H](CO)C(=O)N[C@@H](CO)C(=O)N[C@H](C(=O)N[C@@H](CC(N)=O)C(=O)N[C@H](C(=O)NCC(=O)N1CCC[C@H]1C(=O)N[C@@H](CCC(=O)O)C(=O)N[C@H](C(=O)N[C@@H](Cc1ccc(O)cc1)C(N)=O)[C@@H](C)O)C(C)C)[C@@H](C)O
notes: as for B2
With B4, the IC50 with rat calcitonin receptor [1] was 18.6 nM; in experiment [2] it was 0.3 nM. For the same molecule, in experiment [3], the “Ratio hCT/hAmylin binding” value is 16.7. For the same molecule, in the experiment with rat calcitonin receptor [4], the “Ratio rCT/rAmylin binding” value was 62.

The IC50 is the midpoint of a concentration-inhibition curve.
